Laboratory results: paper PMC4280530 (2014)

B1: anti-Cry1Ac nanobody Nb59 (VHH)
VHH: QVQLQESGGGLVQPGGSLRLSCAASGFTFRDYYMTWVRQAPGQGLEWVSSISFGGGRTYYADSVKGRFTISRDNPENTLYLQLSNLKTEDTAMYYCARGRPNADYDRRGQGTQVTVSS
B2: anti-Cry1Ac nanobody Nb58 (VHH)
VHH: QVQLQESGGGLVQPGGSLRLSCTASGFTFSSYEMDWFRRAPGKELEWVAGITSGGEGTSYRNSVKGRFTISRDNAKNTLYLHLNSLKNEDTAMYYCAKDRRALGEVGQGTQVTVSS
B3: anti-Cry1Ac nanobody Nb44 (VHH)
VHH: QVQLQESGGGSVQAGGSLRLSCATSGLTYSARITWFRQAPEKEREGVATFSTGSGSTGYADSVKGRFTISQDNAKNTLYLQMNNLKPEDTAMYYCAADTSTSWRDIVLVARYKYWGQGTQVTVSS
B4: anti-Cry1Ac nanobody Nb61 (VHH)
VHH: QVQLQESGGGSVQAGGSLRLSCEASENTYNSVYMAWFRQAPEKEREGVAVLSTGGGRTYYTDSVKGRFTISRDNAKNMVYLQMNSLKPDDTAMYYCAATYTGDSYGPSLYYLTPGRYEYWGQGTQVTVSS

Target: T1, Bacillus thuringiensis (Bt) Cry1Ac toxin (Bacillus thuringiensis, UniProt P05068 1-1178)
T1 sequence (P05068 whole entry): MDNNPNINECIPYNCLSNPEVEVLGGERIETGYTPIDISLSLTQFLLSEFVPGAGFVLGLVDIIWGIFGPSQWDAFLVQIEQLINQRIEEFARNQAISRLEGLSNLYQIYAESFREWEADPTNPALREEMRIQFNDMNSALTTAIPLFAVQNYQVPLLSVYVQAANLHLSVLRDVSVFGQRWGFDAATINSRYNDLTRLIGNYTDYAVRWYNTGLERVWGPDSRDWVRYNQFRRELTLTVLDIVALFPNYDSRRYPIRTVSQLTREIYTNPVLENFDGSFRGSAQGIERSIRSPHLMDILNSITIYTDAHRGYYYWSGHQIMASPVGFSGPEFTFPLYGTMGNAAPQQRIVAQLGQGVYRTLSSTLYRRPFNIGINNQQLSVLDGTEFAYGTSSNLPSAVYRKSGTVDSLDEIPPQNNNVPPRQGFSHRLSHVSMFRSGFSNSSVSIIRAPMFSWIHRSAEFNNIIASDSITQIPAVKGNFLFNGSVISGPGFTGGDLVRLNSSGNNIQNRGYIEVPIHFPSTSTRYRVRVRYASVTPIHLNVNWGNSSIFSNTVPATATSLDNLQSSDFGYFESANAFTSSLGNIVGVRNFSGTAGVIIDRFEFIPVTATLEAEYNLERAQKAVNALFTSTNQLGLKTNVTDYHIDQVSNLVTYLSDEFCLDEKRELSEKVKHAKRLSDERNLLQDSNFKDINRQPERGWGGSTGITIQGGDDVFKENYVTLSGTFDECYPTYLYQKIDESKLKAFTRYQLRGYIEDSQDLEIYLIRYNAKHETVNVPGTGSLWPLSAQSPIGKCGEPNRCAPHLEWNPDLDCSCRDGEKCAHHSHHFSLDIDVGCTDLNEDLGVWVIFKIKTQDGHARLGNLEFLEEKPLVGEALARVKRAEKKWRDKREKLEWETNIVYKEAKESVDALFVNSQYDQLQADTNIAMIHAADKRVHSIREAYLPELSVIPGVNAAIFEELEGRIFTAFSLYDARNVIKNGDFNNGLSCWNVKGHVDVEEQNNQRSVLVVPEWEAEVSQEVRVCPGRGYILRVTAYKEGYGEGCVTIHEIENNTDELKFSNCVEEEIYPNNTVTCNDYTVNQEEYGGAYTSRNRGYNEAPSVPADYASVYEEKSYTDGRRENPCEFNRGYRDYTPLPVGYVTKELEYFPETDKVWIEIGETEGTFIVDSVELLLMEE
Experiment: SPR

Row | Binder | koff [s⁻¹]
1 | B1 | 0.00178
2 | B2 | 0.00151
3 | B3 | 0.0014
4 | B4 | 0.00084

Target: T1, Bacillus thuringiensis (Bt) Cry1Ac toxin
Experiment: SPR
Remark: another data set of the same source

Row | Binder | Kd [nM]
5 | B1 | 18
6 | B2 | 23.2
7 | B3 | 6.89
8 | B4 | 60.9
